Target: the molecule itself
Test: dynamic light scattering

Protein	stoichiometry N
AGT WT (enzyme, human) MASHKLLVTPPKALLKPLSIPNQLLLGPGPSNLPPRIMAAGGLQMIGSMSKDMYQIMDEIKEGIQYVFQTRNPLTLVISGSGHCALEAALVNVLEPGDSFLVGANGIWGQRAVDIGERIGARVHPMTKDPGGHYTLQEVEEGLAQHKPVLLFLTHGESSTGVLQPLDGFGELCHRYKCLLLVDSVASLGGTPLYMDRQGIDILYSGSQKALNAPPGTSLISFSDKAKKKMYSRKTKPFSFYLDIKWLANFWGCDDQPRMYHHTIPVISLYSLRESLALIAEQGLENSWRQHREAAAYLHGRLQALGLQLFVKDPALRLPTVTTVAVPAGYDWRDIVSYVIDHFDIEIMGGLGPSTGKVLRIGLLGCNATRENVDRVTEALRAALQHCPKKKL	2
AGT LM-p.I244T (enzyme, human) MASHKLLVTPLKALLKPLSIPNQLLLGPGPSNLPPRIMAAGGLQMIGSMSKDMYQIMDEIKEGIQYVFQTRNPLTLVISGSGHCALEAALVNVLEPGDSFLVGANGIWGQRAVDIGERIGARVHPMTKDPGGHYTLQEVEEGLAQHKPVLLFLTHGESSTGVLQPLDGFGELCHRYKCLLLVDSVASLGGTPLYMDRQGIDILYSGSQKALNAPPGTSLISFSDKAKKKMYSRKTKPFSFYLDTKWLANFWGCDDQPRMYHHTIPVISLYSLRESLALIAEQGLENSWRQHREAAAYLHGRLQALGLQLFVKDPALRLPTVTTVAVPAGYDWRDIVSYVMDHFDIEIMGGLGPSTGKVLRIGLLGCNATRENVDRVTEALRAALQHCPKKKL	2
AGT WT p.S81A (enzyme, human) MASHKLLVTPPKALLKPLSIPNQLLLGPGPSNLPPRIMAAGGLQMIGSMSKDMYQIMDEIKEGIQYVFQTRNPLTLVISGAGHCALEAALVNVLEPGDSFLVGANGIWGQRAVDIGERIGARVHPMTKDPGGHYTLQEVEEGLAQHKPVLLFLTHGESSTGVLQPLDGFGELCHRYKCLLLVDSVASLGGTPLYMDRQGIDILYSGSQKALNAPPGTSLISFSDKAKKKMYSRKTKPFSFYLDIKWLANFWGCDDQPRMYHHTIPVISLYSLRESLALIAEQGLENSWRQHREAAAYLHGRLQALGLQLFVKDPALRLPTVTTVAVPAGYDWRDIVSYVIDHFDIEIMGGLGPSTGKVLRIGLLGCNATRENVDRVTEALRAALQHCPKKKL	2
AGT LM-p.G170R p.S81D (enzyme, human) MASHKLLVTPLKALLKPLSIPNQLLLGPGPSNLPPRIMAAGGLQMIGSMSKDMYQIMDEIKEGIQYVFQTRNPLTLVISGDGHCALEAALVNVLEPGDSFLVGANGIWGQRAVDIGERIGARVHPMTKDPGGHYTLQEVEEGLAQHKPVLLFLTHGESSTGVLQPLDGFRELCHRYKCLLLVDSVASLGGTPLYMDRQGIDILYSGSQKALNAPPGTSLISFSDKAKKKMYSRKTKPFSFYLDIKWLANFWGCDDQPRMYHHTIPVISLYSLRESLALIAEQGLENSWRQHREAAAYLHGRLQALGLQLFVKDPALRLPTVTTVAVPAGYDWRDIVSYVMDHFDIEIMGGLGPSTGKVLRIGLLGCNATRENVDRVTEALRAALQHCPKKKL	2
AGT LM-p.G170R (enzyme, human) MASHKLLVTPLKALLKPLSIPNQLLLGPGPSNLPPRIMAAGGLQMIGSMSKDMYQIMDEIKEGIQYVFQTRNPLTLVISGSGHCALEAALVNVLEPGDSFLVGANGIWGQRAVDIGERIGARVHPMTKDPGGHYTLQEVEEGLAQHKPVLLFLTHGESSTGVLQPLDGFRELCHRYKCLLLVDSVASLGGTPLYMDRQGIDILYSGSQKALNAPPGTSLISFSDKAKKKMYSRKTKPFSFYLDIKWLANFWGCDDQPRMYHHTIPVISLYSLRESLALIAEQGLENSWRQHREAAAYLHGRLQALGLQLFVKDPALRLPTVTTVAVPAGYDWRDIVSYVMDHFDIEIMGGLGPSTGKVLRIGLLGCNATRENVDRVTEALRAALQHCPKKKL	2
AGT LM-p.G170R p.S81A (enzyme, human) MASHKLLVTPLKALLKPLSIPNQLLLGPGPSNLPPRIMAAGGLQMIGSMSKDMYQIMDEIKEGIQYVFQTRNPLTLVISGAGHCALEAALVNVLEPGDSFLVGANGIWGQRAVDIGERIGARVHPMTKDPGGHYTLQEVEEGLAQHKPVLLFLTHGESSTGVLQPLDGFRELCHRYKCLLLVDSVASLGGTPLYMDRQGIDILYSGSQKALNAPPGTSLISFSDKAKKKMYSRKTKPFSFYLDIKWLANFWGCDDQPRMYHHTIPVISLYSLRESLALIAEQGLENSWRQHREAAAYLHGRLQALGLQLFVKDPALRLPTVTTVAVPAGYDWRDIVSYVMDHFDIEIMGGLGPSTGKVLRIGLLGCNATRENVDRVTEALRAALQHCPKKKL	2
AGT LM p.S81D (enzyme, human) MASHKLLVTPLKALLKPLSIPNQLLLGPGPSNLPPRIMAAGGLQMIGSMSKDMYQIMDEIKEGIQYVFQTRNPLTLVISGDGHCALEAALVNVLEPGDSFLVGANGIWGQRAVDIGERIGARVHPMTKDPGGHYTLQEVEEGLAQHKPVLLFLTHGESSTGVLQPLDGFGELCHRYKCLLLVDSVASLGGTPLYMDRQGIDILYSGSQKALNAPPGTSLISFSDKAKKKMYSRKTKPFSFYLDIKWLANFWGCDDQPRMYHHTIPVISLYSLRESLALIAEQGLENSWRQHREAAAYLHGRLQALGLQLFVKDPALRLPTVTTVAVPAGYDWRDIVSYVMDHFDIEIMGGLGPSTGKVLRIGLLGCNATRENVDRVTEALRAALQHCPKKKL	2
AGT WT p.S81D (enzyme, human) MASHKLLVTPPKALLKPLSIPNQLLLGPGPSNLPPRIMAAGGLQMIGSMSKDMYQIMDEIKEGIQYVFQTRNPLTLVISGDGHCALEAALVNVLEPGDSFLVGANGIWGQRAVDIGERIGARVHPMTKDPGGHYTLQEVEEGLAQHKPVLLFLTHGESSTGVLQPLDGFGELCHRYKCLLLVDSVASLGGTPLYMDRQGIDILYSGSQKALNAPPGTSLISFSDKAKKKMYSRKTKPFSFYLDIKWLANFWGCDDQPRMYHHTIPVISLYSLRESLALIAEQGLENSWRQHREAAAYLHGRLQALGLQLFVKDPALRLPTVTTVAVPAGYDWRDIVSYVIDHFDIEIMGGLGPSTGKVLRIGLLGCNATRENVDRVTEALRAALQHCPKKKL	2
AGT LM (enzyme, human) MASHKLLVTPLKALLKPLSIPNQLLLGPGPSNLPPRIMAAGGLQMIGSMSKDMYQIMDEIKEGIQYVFQTRNPLTLVISGSGHCALEAALVNVLEPGDSFLVGANGIWGQRAVDIGERIGARVHPMTKDPGGHYTLQEVEEGLAQHKPVLLFLTHGESSTGVLQPLDGFGELCHRYKCLLLVDSVASLGGTPLYMDRQGIDILYSGSQKALNAPPGTSLISFSDKAKKKMYSRKTKPFSFYLDIKWLANFWGCDDQPRMYHHTIPVISLYSLRESLALIAEQGLENSWRQHREAAAYLHGRLQALGLQLFVKDPALRLPTVTTVAVPAGYDWRDIVSYVMDHFDIEIMGGLGPSTGKVLRIGLLGCNATRENVDRVTEALRAALQHCPKKKL	2
AGT LM-p.I244T p.S81D (enzyme, human) MASHKLLVTPLKALLKPLSIPNQLLLGPGPSNLPPRIMAAGGLQMIGSMSKDMYQIMDEIKEGIQYVFQTRNPLTLVISGDGHCALEAALVNVLEPGDSFLVGANGIWGQRAVDIGERIGARVHPMTKDPGGHYTLQEVEEGLAQHKPVLLFLTHGESSTGVLQPLDGFGELCHRYKCLLLVDSVASLGGTPLYMDRQGIDILYSGSQKALNAPPGTSLISFSDKAKKKMYSRKTKPFSFYLDTKWLANFWGCDDQPRMYHHTIPVISLYSLRESLALIAEQGLENSWRQHREAAAYLHGRLQALGLQLFVKDPALRLPTVTTVAVPAGYDWRDIVSYVMDHFDIEIMGGLGPSTGKVLRIGLLGCNATRENVDRVTEALRAALQHCPKKKL	2
AGT LM p.S81A (enzyme, human) MASHKLLVTPLKALLKPLSIPNQLLLGPGPSNLPPRIMAAGGLQMIGSMSKDMYQIMDEIKEGIQYVFQTRNPLTLVISGAGHCALEAALVNVLEPGDSFLVGANGIWGQRAVDIGERIGARVHPMTKDPGGHYTLQEVEEGLAQHKPVLLFLTHGESSTGVLQPLDGFGELCHRYKCLLLVDSVASLGGTPLYMDRQGIDILYSGSQKALNAPPGTSLISFSDKAKKKMYSRKTKPFSFYLDIKWLANFWGCDDQPRMYHHTIPVISLYSLRESLALIAEQGLENSWRQHREAAAYLHGRLQALGLQLFVKDPALRLPTVTTVAVPAGYDWRDIVSYVMDHFDIEIMGGLGPSTGKVLRIGLLGCNATRENVDRVTEALRAALQHCPKKKL	2
AGT LM-p.I244T p.S81A (enzyme, human) MASHKLLVTPLKALLKPLSIPNQLLLGPGPSNLPPRIMAAGGLQMIGSMSKDMYQIMDEIKEGIQYVFQTRNPLTLVISGAGHCALEAALVNVLEPGDSFLVGANGIWGQRAVDIGERIGARVHPMTKDPGGHYTLQEVEEGLAQHKPVLLFLTHGESSTGVLQPLDGFGELCHRYKCLLLVDSVASLGGTPLYMDRQGIDILYSGSQKALNAPPGTSLISFSDKAKKKMYSRKTKPFSFYLDTKWLANFWGCDDQPRMYHHTIPVISLYSLRESLALIAEQGLENSWRQHREAAAYLHGRLQALGLQLFVKDPALRLPTVTTVAVPAGYDWRDIVSYVMDHFDIEIMGGLGPSTGKVLRIGLLGCNATRENVDRVTEALRAALQHCPKKKL	2

Reference: doi:10.1101/2025.04.14.648764 (bioRxiv, 2025)
